Data reported in patent US20140303084.
Changes are numbered by the printed parent chain.

Columns and labels:
[1] = tested on: T1, RRAPGKLTCLASYCWLFWTGIK(PEG2-Biotin)
T1 sequence: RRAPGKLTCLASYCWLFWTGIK

[2] = tested on: T2, KLtCLASYCWLF
T2 sequence: KLTCLASYCWLF

[3] = tested on: T3, compound 20
T3 sequence: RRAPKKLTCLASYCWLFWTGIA

[4] = tested on: T4, RRAPGKLTCLASYCWLFWTG-MeIle-A
T4 sequence: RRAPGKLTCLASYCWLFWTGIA

[5] = tested on: T5, RRAPGKLTCLASYCK(PEG2-Biotin)LFWTGIA
T5 sequence: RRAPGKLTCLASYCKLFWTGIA

[6] = tested on: T6, RRAPGKLTCLASYCWLF WTGWC RDTASHACDS
T6 sequence: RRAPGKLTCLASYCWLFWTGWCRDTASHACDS

[7] = tested on: T7, RRAPGKLTCLASYCWLF EPGIA QPYAKSPTRN
T7 sequence: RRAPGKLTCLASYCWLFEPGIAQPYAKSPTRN

[8] = tested on: T8, QAKMLKLTCLASYCWLFWVTRS
T8 sequence: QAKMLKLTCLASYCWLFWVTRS

[9] = tested on: T9, TALSRGLVTM RTAPD KLTCLASYCWLFWTGIA
T9 sequence: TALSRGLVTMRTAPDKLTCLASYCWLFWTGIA

[10] = tested on: T10, KLTCLASYC-Nal-LF
T10 sequence: KLTCLASYCXLF

[11] = tested on: T11, C(Acm)GGGGfpipR-PEG5-rRAPGKLTCLASYCWLFWTGIA
T11 sequence: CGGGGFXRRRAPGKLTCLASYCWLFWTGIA

[12] = tested on: T12, RRAPGKLQCLASYCWLFWT-Aib-IA
T12 sequence: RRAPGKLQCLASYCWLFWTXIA

[13] = tested on: T13, DAKVAKLRCLGSQCWLLQYAPG
T13 sequence: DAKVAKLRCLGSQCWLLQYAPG

[14] = tested on: T14, NGALGFRSVV PRAAG KLTCLASYCWLFWTGIA
T14 sequence: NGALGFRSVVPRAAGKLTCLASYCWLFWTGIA

[15] = tested on: T15, VSGTGRLTCVASYCWMFQLGSF
T15 sequence: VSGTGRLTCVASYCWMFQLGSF

[16] = tested on: T16, KKLTCLASYCWLF
T16 sequence: KKLTCLASYCWLF

[17] = tested on: T17, RRAPGCLTALASYAWLCWTGIA-CONH2
T17 sequence: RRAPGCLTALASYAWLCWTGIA

[18] = tested on: T18, PRIRTVGPGSRSASGKLTCVASYCWLFWTGIA
T18 sequence: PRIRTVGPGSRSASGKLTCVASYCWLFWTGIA

[19] = tested on: T19, AVDSLPLYGA RSAPS KLTCLASYCWLFWTGIA
T19 sequence: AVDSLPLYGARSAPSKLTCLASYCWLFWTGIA

[20] = tested on: T20, PRIRTVGPGSRRASGKLTCLASYCWLFWTGIA
T20 sequence: T18 sequence with S12R, V20L

[21] = tested on: T21, AQWVGRGQWA IRAPG KLTCLASYCWLFWTGIA
T21 sequence: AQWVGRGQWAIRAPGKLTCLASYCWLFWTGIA

[22] = tested on: T22, SKQGRPISPDrRAAGKLTCLaSYCWLFWTGIA
T22 sequence: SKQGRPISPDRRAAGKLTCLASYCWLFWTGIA

[23] = tested on: T23, RRAPGKLQCLASYCWLFWTG
T23 sequence: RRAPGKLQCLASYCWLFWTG

[24] = tested on: T24, RRAPGKLTCLASYCWLF WTTWT TAPTTPPLTT
T24 sequence: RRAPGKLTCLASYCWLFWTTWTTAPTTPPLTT

[25] = tested on: T25, KLTCL-Abu-SYCWLF
T25 sequence: KLTCLXSYCWLF

[26] = tested on: T26, PRIRTVGPGSRSASGKLTCLASYCWLFWTGI
T26 sequence: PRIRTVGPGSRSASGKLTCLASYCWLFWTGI

[27] = tested on: T27, RRCPGKLQALASYCWLFWTGIA
T27 sequence: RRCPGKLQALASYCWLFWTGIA

[28] = tested on: T28, PGKLQCLASYCWLFWTGIA
T28 sequence: PGKLQCLASYCWLFWTGIA

[29] = tested on: T29, TLWPWGGQGG RNAPG KLTCLASYCWLFWTGIA
T29 sequence: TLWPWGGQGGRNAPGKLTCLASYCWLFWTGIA

[30] = tested on: T30, RRAPGKLT-Asp-LASY-Lys-WLFWTGIA-COOH
T30 sequence: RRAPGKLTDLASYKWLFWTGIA

[31] = tested on: T31, rRAAGKLTCLASYCWLAATGIA
T31 sequence: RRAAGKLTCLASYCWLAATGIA

[32] = tested on: T32, RRaPGKLTCLASYCWLFWTGIA
T32 sequence: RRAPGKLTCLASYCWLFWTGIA

[33] = tested on: T33, RRAPGKLTCLASYCWLFwTGIA
T33 sequence: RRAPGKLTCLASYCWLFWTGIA

[34] = tested on: T34, SLISMTNPSG RRVPG KLTCLASYCWLFWTGIA
T34 sequence: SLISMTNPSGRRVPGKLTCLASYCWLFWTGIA

[35] = tested on: T35, compound 3
T35 sequence: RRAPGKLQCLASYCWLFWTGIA

[36] = tested on: T36, SKQGRAISPDrRAAGKLTCLASYCWLFWTGIA
T36 sequence: T22 sequence with P6A

[37] = tested on: T37, compound 4
T37 sequence: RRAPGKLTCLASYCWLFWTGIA

[38] = tested on: T38, RRAPGKLTCLASYCWLFWTGiA
T38 sequence: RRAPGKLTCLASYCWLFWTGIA

[39] = tested on: T39, RGRSAKLRCLASYCWLFFTVIL
T39 sequence: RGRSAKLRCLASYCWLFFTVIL

[40] = tested on: T40, rRAPGKLTCLASYCWLFWTGIA-PEG16-Lys(PEG2-Biotin)-PEG16
T40 sequence: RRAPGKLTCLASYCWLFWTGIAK

[41] = tested on: T41, KLTCLASYCwLF
T41 sequence: KLTCLASYCWLF

[42] = tested on: T42, HQQRRKLTCLAGYCWLFVLGPS
T42 sequence: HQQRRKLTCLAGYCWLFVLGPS

[43] = tested on: T43, SKAGRPISPDrRAAGKLTCLASYCWLFWTGIA
T43 sequence: T22 sequence with Q3A

[44] = tested on: T44, KLTCLASYC
T44 sequence: KLTCLASYC

[45] = tested on: T45, RRAPGKLTCLASYCWLF WRGFA ERASEDTNQG
T45 sequence: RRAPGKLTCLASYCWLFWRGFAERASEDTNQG

[46] = tested on: T46, PRSRTVGPGSRSASGKLTCLASYCWLFWTGIA
T46 sequence: T18 sequence with I3S, V20L

Q: Which “Vmax, FXa generation assay; (++) means 1-2” value (“Vmax … (++) means 1-2” for short) [1] does the source give for human Factor IXa here?
A: (++)

Q: And the Vmax, FXa generation assay [2]?
A: > 2

Q: And the Vmax, FXa generation assay with hFIXa [3]?
A: > 2

Q: What about the Vmax, FXa generation assay [4] of the same substance?
A: > 2.3

Q: And the “Vmax … (++) means 1-2” value [5]?
A: (++)

Q: And the “Vmax … (++) means 1-2” value [6]?
A: (++)

Q: What about the Vmax, FXa generation assay [7] of the same substance?
A: > 2

Q: And the Vmax, FXa generation assay [8]?
A: > 2

Q: What about the “Vmax … (++) means 1-2” value [9] of the same substance?
A: (++)

Q: And the Vmax, FXa generation assay [10]?
A: > 3

Q: What about the Vmax, FXa generation assay [11] of the same substance?
A: > 3

Q: And the “Vmax … (++) means 1-2” value [12]?
A: (++)

Q: And the “Vmax … (++) means 1-2” value [13]?
A: (++)

Q: What about the Vmax, FXa generation assay [14] of the same substance?
A: > 2

Q: What about the “Vmax … (++) means 1-2” value [15] of the same substance?
A: (++)

Q: And the Vmax, FXa generation assay [16]?
A: > 3

Q: And the “Vmax … (++) means 1-2” value [17]?
A: (++)

Q: What about the Vmax, FXa generation assay [18] of the same substance?
A: > 2

Q: And the “Vmax … (++) means 1-2” value [19]?
A: (++)

Q: And the Vmax, FXa generation assay [20]?
A: > 3

Q: What about the Vmax, FXa generation assay [21] of the same substance?
A: > 2

Q: What about the Vmax, FXa generation assay [22] of the same substance?
A: > 0.5

Q: And the Vmax, FXa generation assay [23]?
A: > 2

Q: And the Vmax, FXa generation assay [24]?
A: > 2

Q: What about the Vmax, FXa generation assay [25] of the same substance?
A: > 2

Q: And the Vmax, FXa generation assay [26]?
A: > 3

Q: What about the Vmax, FXa generation assay [27] of the same substance?
A: > 2

Q: And the Vmax, FXa generation assay [28]?
A: > 2

Q: What about the Vmax, FXa generation assay [29] of the same substance?
A: > 2

Q: And the “Vmax … (++) means 1-2” value [30]?
A: (++)

Q: What about the Vmax, FXa generation assay [31] of the same substance?
A: > 0.8

Q: And the “Vmax … (++) means 1-2” value [32]?
A: (++)

Q: And the “Vmax … (++) means 1-2” value [33]?
A: (++)

Q: And the Vmax, FXa generation assay [34]?
A: > 2

Q: And the KM (nM) of hFIXa for FX [35]?
A: 16 nM

Q: What about the Vmax (mOD/min min), with phospholipids [35] of the same substance?
A: 3.9 mOD/min min

Q: And the Vmax (mOD/min min), without phospholipids [35]?
A: 2.77 mOD/min min

Q: And the Vmax, FXa generation assay with hFIXa [35]?
A: > 3

Q: And the kcat (min^-1) of hFIXa for FX, compound at 1 µM [35]?
A: 0.0177 min⁻¹

Q: What about the Δ KM (Km compound/Km buffer) [35] of the same substance?
A: 0.21

Q: What about the Vmax, FXa generation assay [36] of the same substance?
A: > 3

Q: And the KM (nM) of hFIXa for FX [37]?
A: 11 nM

Q: What about the Vmax, FXa generation assay with hFIXa [37] of the same substance?
A: > 2

Q: And the kcat (min^-1) of hFIXa for FX, compound at 1 µM [37]?
A: 0.0171 min⁻¹

Q: And the Δ KM (Km compound/Km buffer) [37]?
A: 0.14

Q: What about the “Vmax … (++) means 1-2” value [38] of the same substance?
A: (++)

Q: What about the Vmax, FXa generation assay [39] of the same substance?
A: > 2

Q: And the Vmax, FXa generation assay [40]?
A: > 3

Q: What about the Vmax, FXa generation assay [41] of the same substance?
A: > 3

Q: And the Vmax, FXa generation assay [42]?
A: > 2

Q: And the Vmax, FXa generation assay [43]?
A: > 2

Q: And the Vmax, FXa generation assay [44]?
A: > 3

Q: And the Vmax, FXa generation assay [45]?
A: > 2

Q: And the Vmax, FXa generation assay [46]?
A: > 3
